Assay results: paper PMC3074190 (Molecular carcinogenesis, 2010)

T1: GST-β-catenin-S37A (human, UniProt P35222 1-781, S37A)
T1 sequence (looked up): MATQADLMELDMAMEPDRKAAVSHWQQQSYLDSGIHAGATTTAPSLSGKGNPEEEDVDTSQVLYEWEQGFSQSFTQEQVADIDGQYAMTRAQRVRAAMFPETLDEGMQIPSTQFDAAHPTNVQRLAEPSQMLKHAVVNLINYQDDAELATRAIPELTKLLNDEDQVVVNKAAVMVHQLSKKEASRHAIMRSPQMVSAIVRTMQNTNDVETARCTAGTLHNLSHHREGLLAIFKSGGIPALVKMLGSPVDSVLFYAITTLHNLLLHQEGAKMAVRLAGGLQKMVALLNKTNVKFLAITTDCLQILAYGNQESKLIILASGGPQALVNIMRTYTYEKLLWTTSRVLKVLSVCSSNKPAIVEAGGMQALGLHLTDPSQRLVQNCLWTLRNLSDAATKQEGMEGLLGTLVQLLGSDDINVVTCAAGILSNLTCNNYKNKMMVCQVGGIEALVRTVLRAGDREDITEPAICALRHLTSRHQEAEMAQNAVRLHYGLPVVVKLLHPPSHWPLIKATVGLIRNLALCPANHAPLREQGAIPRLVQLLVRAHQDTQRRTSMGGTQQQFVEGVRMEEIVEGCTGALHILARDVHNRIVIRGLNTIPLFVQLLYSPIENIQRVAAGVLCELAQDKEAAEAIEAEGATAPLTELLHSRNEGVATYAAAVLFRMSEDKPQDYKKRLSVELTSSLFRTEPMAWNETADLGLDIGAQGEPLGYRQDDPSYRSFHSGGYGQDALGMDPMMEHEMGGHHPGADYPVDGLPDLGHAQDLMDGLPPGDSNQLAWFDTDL


Key:
[1] = target: β-catenin bait (BD fusion) (human) (UniProt P35222); assay: two-hybrid
GST-β-catenin-S37A = target: T1, GST-β-catenin-S37A; assay: pull-down

fold increase of the two-hybrid signal with 1,25D over vehicle [1] | fold increase of the two-hybrid signal with LCA over vehicle [1] | band intensity with GST-β-catenin, fold over GST-only control (GST-β-catenin-S37A) | Binder
12 fold | 8 fold | – | VDR prey (AD fusion), wild type (natural protein) MEAMAASTSLPDPGDFDRNVPRICGVCGDRATGFHFNAMTCEGCKGFFRRSMKRKALFTCPFNGDCRITKDNRRHCQACRLKRCVDIGMMKEFILTDEEVQRKREMILKRKEEEALKDSLRPKLSEEQQRIIAILLDAHHKTYDPTYSDFCQFRPPVRVNDGGGSHPSRPNSRHTPSFSGDSSSSCSDHCITSSDMMDSSSFSNLDLSEEDSDDPSVTLELSQLSMLPHLADLVSYSIQKVIGFAKMIPGFRDLTSEDQIVLLKSSAIEVIMLRSNESFTMDDMSWTCGNQDYKYRVSDVTKAGHSLELIEPLIKFQVGLKKLNLHEEEHVLLMAICIVSPDRPGVQDAALIEAIQDRLSNTLQTYIRCRHPPPGSHLLYAKMIQKLADLRSLNEEHSKQYRCLSFQPECSMKLTPLVLEVFGNEIS
– | – | 7.1 fold | VDR Δ1–88, N-terminally truncated VDR, 35S-methionine labelled (domain or fragment, human, UniProt P11473 89-427, looked up, 35S-methionine labelled) MMKEFILTDEEVQRKREMILKRKEEEALKDSLRPKLSEEQQRIIAILLDAHHKTYDPTYSDFCQFRPPVRVNDGGGSHPSRPNSRHTPSFSGDSSSSCSDHCITSSDMMDSSSFSNLDLSEEDSDDPSVTLELSQLSMLPHLADLVSYSIQKVIGFAKMIPGFRDLTSEDQIVLLKSSAIEVIMLRSNESFTMDDMSWTCGNQDYKYRVSDVTKAGHSLELIEPLIKFQVGLKKLNLHEEEHVLLMAICIVSPDRPGVQDAALIEAIQDRLSNTLQTYIRCRHPPPGSHLLYAKMIQKLADLRSLNEEHSKQYRCLSFQPECSMKLTPLVLEVFGNEIS
– | – | 8.3 fold | human vitamin D receptor, full-length wild type (F/M4 allele), 35S-methionine labelled (natural protein, UniProt P11473 4-427, looked up, 35S-methionine labelled) MAASTSLPDPGDFDRNVPRICGVCGDRATGFHFNAMTCEGCKGFFRRSMKRKALFTCPFNGDCRITKDNRRHCQACRLKRCVDIGMMKEFILTDEEVQRKREMILKRKEEEALKDSLRPKLSEEQQRIIAILLDAHHKTYDPTYSDFCQFRPPVRVNDGGGSHPSRPNSRHTPSFSGDSSSSCSDHCITSSDMMDSSSFSNLDLSEEDSDDPSVTLELSQLSMLPHLADLVSYSIQKVIGFAKMIPGFRDLTSEDQIVLLKSSAIEVIMLRSNESFTMDDMSWTCGNQDYKYRVSDVTKAGHSLELIEPLIKFQVGLKKLNLHEEEHVLLMAICIVSPDRPGVQDAALIEAIQDRLSNTLQTYIRCRHPPPGSHLLYAKMIQKLADLRSLNEEHSKQYRCLSFQPECSMKLTPLVLEVFGNEIS
